Experimental data taken from patent EP4578463A1, “ENDO-180 TARGETED ANTIBODY-DRUG CONJUGATES” (Oncomatryx Biopharma, S.L., priority 2023, dated 2025).

Assays:
[1] = system: IC9LC11 non-small cell lung cancer patient-derived xenograft; test: Antitumor activity in IC9LC11 non-small cell lung cancer patient-derived xenograft model; format: in vivo, immunodeficient female mice; details: 5 mg/kg; control group end day, D28
[2] = target: T1, Endo180 on cells (Endo180-expressing HT1080-WT cells; Endo180-transfected HEK293-Endo180 cells) (UniProt Q9UBG0 31-1479); test: flow cytometry on HT1080-WT cells
T1 construct: whole, on cells; One molecule is used for the endogenous protein on HT1080-WT and the transfected protein on HEK293-Endo180; also called uPARAP
T1 sequence (looked up): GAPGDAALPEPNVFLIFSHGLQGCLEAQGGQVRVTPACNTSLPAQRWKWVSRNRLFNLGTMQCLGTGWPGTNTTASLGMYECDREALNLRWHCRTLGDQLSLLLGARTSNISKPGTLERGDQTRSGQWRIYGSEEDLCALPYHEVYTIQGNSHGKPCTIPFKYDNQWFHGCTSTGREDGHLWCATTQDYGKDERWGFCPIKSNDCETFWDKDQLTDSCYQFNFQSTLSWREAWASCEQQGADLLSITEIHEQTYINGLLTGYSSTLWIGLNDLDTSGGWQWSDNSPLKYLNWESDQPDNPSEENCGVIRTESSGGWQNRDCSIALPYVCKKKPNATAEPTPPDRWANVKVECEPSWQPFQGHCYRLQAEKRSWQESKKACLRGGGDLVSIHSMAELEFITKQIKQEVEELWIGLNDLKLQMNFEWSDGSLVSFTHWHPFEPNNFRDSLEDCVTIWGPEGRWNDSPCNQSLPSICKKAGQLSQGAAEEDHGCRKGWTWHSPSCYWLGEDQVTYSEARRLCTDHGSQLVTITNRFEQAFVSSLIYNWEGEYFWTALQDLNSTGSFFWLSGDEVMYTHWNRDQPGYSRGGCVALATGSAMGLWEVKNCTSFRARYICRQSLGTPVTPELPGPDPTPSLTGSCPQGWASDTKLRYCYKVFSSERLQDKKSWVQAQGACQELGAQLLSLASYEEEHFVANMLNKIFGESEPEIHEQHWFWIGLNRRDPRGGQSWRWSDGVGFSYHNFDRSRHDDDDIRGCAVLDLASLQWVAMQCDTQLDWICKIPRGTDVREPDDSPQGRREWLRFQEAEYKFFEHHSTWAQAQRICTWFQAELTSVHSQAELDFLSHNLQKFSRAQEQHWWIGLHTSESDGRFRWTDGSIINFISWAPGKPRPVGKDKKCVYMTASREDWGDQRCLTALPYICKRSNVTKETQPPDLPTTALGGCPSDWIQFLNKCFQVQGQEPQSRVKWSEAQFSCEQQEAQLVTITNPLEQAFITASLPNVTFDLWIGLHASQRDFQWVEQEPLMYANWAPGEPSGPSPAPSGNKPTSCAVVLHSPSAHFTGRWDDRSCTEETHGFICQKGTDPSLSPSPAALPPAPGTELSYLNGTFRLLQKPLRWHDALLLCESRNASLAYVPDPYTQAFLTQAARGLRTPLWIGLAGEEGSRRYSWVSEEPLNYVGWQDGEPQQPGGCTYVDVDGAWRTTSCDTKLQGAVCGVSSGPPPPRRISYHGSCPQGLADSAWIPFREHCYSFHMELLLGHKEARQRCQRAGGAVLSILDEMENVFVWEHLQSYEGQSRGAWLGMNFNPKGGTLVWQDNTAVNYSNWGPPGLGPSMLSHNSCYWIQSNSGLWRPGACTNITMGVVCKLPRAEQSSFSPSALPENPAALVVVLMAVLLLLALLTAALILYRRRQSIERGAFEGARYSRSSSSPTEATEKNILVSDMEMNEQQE

[3] = target: T2, human Endo180-moFc domains I-III (aa 31-370) (human, UniProt Q9UBG0 31-370); test: ELISA, immobilized human Endo180-mouse Fc DI-III
T2 construct: also called huEndo180 (DI-III); huEndo180-moFc DI-III; not shown: murine Fc domain
T2 sequence: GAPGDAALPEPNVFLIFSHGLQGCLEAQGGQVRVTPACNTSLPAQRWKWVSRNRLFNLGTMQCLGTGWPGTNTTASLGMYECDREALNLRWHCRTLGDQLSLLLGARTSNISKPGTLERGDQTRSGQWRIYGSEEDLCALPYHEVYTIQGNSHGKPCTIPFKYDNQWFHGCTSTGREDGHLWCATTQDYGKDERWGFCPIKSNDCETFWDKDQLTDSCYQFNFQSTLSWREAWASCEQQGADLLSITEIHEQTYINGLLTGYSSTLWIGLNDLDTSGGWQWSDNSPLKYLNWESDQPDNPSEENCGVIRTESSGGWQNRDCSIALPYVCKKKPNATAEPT

[4] = target: T3, human Endo180-moFc domains I-IV (aa 31-513) (human, UniProt Q9UBG0 31-513); test: ELISA, immobilized human Endo180-mouse Fc DI-IV
T3 construct: also called huEndo180 (DI-IV); huEndo180-moFc DI-IV; not shown: murine Fc domain
T3 sequence: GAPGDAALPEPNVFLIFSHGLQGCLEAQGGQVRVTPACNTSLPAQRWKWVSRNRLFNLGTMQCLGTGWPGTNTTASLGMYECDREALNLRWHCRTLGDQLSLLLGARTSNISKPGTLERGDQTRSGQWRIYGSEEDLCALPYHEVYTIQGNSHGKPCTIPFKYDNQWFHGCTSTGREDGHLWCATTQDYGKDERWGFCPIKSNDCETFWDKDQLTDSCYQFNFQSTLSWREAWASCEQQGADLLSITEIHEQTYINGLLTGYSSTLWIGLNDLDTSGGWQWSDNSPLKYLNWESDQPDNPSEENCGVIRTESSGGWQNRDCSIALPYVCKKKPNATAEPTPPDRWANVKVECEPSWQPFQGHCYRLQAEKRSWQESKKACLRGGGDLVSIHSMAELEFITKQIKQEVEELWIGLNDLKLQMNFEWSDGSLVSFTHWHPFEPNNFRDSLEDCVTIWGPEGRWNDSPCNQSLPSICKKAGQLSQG

[5] = target: T1, Endo180 on cells (Endo180-expressing …); test: flow cytometry on HEK293-Endo180 cells

CC(=O)O[C@@]12CO[C@@H]1C[C@H](O)[C@@]1(C)C(=O)[C@H](O)C3=C(C)[C@@H](OC(=O)[C@H](O)[C@@H](NC(=O)OC(C)(C)C)c4ccccc4)C[C@@](O)([C@@H](OC(=O)c4ccccc4)[C@H]21)C3(C)C [Docetaxel]
TGI [1]: 73% | tolerability based on body weight data and clinical observations (mouse, in vivo): well tolerated, except in one mouse | relative weight loss (one mouse, at the group end day): 16.0%

B1: IgG G7V Δab (antibody, V domains shown)
VH: EVQLVESGGGLVKPGGSLRLSCAASGFTFSSYSMNWVRQAPGKGLEWVANIKPDGSERHSVDSVKGRFTISRDNSKNSLYLQMNSLRAEDTAVYYCARPGAGRLDYWGQGTLVTVSS
VL: SSELTQDPAVSVALGQTVRITCQGDSLRSYYASWYQQKPGQAPVLVVYGKNNRPSGIPDRFSGSSSGNTASLTITGAQAEDEADYYCNSRDSSGNPWAFGGGTKVTVL
notes: also called IgG G7V with a silent Fc
EC50 [2]: 3.7 nM | EC50 [3]: 0.45 nM | EC50 [4]: 0.53 nM

B2: OMTX807 ADC (antibody-drug conjugate) (antibody, human IgG1, lambda, V domains shown)
VH: B1 VH
VL: SSELTQDPAVSVALGQTVRITCQGDSLRSYYASWYQQKPGQAPVLVVYGKNNRPSGIPDRFSGSSSGNTASLTITGAQAEDEADYYCNSRDSSGNPWAFGGGTKVTVLG
modifications: drug-linker GGFG-DXd on cysteine residues, non-specific site (sites not given); drug-linker GGFG-DXd on cysteine residues, non-specific site, DAR 8.05
notes: antibody-drug conjugate
EC50 [5]: 0.7 nM

B3: OMTX707 antibody-drug conjugate (antibody, human IgG1, lambda, V domains shown)
VH: B1 VH
VL: B2 VL
modifications: drug-linker TAM558 on cysteine residues, non-site directed (sites not given); drug-linker TAM558 (cytolysin-linker maleimide caproyl vcPABA) on cysteine residues, non-site directed, DAR 3.79
notes: antibody-drug conjugate; also called OMTX707 ADC
EC50 [5]: 1.3 nM
